From publication doi:10.1101/2021.01.25.428185 (bioRxiv, 2021)
Positions count from the first letter of the chain named.

What was measured:
[1] = target: T1, GST-Rab11A(CA), mouse Rab11A(Q70L), GTPγS-loaded (mouse, UniProt P62492 1-216, Q70L); experiment: pull-down
T1 sequence (looked up): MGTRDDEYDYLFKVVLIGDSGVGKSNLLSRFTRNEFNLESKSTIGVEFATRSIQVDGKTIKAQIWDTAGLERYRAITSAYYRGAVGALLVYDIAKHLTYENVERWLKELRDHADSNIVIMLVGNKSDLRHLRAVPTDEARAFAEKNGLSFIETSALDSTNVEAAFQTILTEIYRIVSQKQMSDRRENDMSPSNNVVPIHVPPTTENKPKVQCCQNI

[2] = target: T2, GST-Rab11A(CN), mouse Rab11A(N124I), GDP-loaded (mouse, UniProt P62492 1-216, N124I); experiment: pull-down
T2 sequence (looked up): T1 sequence (looked up) with L70Q, N124I

binding result [1]: binds
binding result [2]: binds
B1: T7-tagged Rab11-FIP2-C (domain or fragment, mouse, UniProt G3XA57 389-512, looked up)
chain: PSAFSENRQDYFEYESTNPFTAKFRASTIMPSSSFHVNPTSSEDLRKIPDNNPFDATAGYRSLTYEEVLQELVKHKELLRRKDTHIRELEDYIDNLLVRVMEETPSILRVPYEPSRKAGKFTNS
